# T1: FcγRIIa R (human, UniProt P12318 34-217)
# T1 construct: extracellular domain; also called FcgRIIa R type; 2aR; not shown: His tag at the C terminus
# T1 sequence (looked up): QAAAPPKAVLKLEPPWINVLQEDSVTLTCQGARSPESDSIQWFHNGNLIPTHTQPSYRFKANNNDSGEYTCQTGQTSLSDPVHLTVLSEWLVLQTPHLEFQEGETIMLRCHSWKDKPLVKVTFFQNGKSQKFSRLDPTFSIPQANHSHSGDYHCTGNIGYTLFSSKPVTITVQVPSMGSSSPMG
# T2: FcγRIIb (human, UniProt P31994 43-217)
# T2 construct: extracellular domain; also called FcgRIIb; 2b; not shown: His tag at the C terminus
# T2 sequence (looked up): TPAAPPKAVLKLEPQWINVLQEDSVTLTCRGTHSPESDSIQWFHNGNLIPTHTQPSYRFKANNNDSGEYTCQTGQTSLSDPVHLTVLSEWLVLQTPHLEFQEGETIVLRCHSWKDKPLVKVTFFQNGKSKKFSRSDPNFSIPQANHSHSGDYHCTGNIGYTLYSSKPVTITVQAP
# Key:
# [1] = target: T1, FcγRIIa R; experiment: SPR; He/Con_2aR divided by He/Con_2b (FcγRIIa R over FcγRIIb)
# [2] = target: T2, FcγRIIb; experiment: SPR, relative to GpH7-A5/GpH7-B3/GpL16-k0
# [3] = target: T1, FcγRIIa R; experiment: SPR, relative to GpH7-A5/GpH7-B3/GpL16-k0
# [4] = target: T3, FcγRIIIa extracellular domain with C-terminal His tag (human, UniProt P08637 17-208); experiment: SPR (Biacore), antibody captured on antigen peptide chip, FcγR as analyte; GpH7-A5/GpH7-B3/GpL16-k0 = 100
# T3 construct: extracellular domain; also called FcgRIIIa; 3a
# T3 sequence (P08637 17-208): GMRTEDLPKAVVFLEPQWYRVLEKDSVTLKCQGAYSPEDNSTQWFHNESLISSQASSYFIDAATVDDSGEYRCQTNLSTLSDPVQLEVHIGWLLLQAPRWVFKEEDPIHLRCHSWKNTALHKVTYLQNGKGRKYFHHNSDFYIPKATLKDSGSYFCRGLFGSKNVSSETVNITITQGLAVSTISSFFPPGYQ
# Procedure: (§1) The heterodimerized antibodies He Abs in which one of the H chains was introduced with an alteration were assayed for their binding activities to each activating FcγR and inhibitory FcγR according to the method described in Example 4. […] The activating FcγRs in FIGS. 26, 27, 28, and 29 are FcγRIa, FcγRIIa (R), FcγRIIa (H), and FcγRIIIa, respectively.
# (§2) Analysis of interaction between objective antibody and the FcγR was carried out using Biacore T100 (GE Healthcare). HBS-EP+ (GE Healthcare) was used as the running buffer, and the measurement temperature was set to 25° C. Chips produced by immobilizing the antigen peptide by the amine coupling method to a Series S Sencor Chip CM5 (GE Healthcare), or alternatively, chips produced by allowing preliminarily biotinylated antigen peptides to interact with and immobilize onto a Series S Sensor Chip SA (certified) (GE Healthcare) were used. Antibodies of interest were captured onto an antigen peptide-immobilized chip, and allowed to interact to each FcγR diluted with running buffer. To regenerate and repeatedly use the chip, the antibodies captured on the chip were washed off by reacting 10 mM glycine-HCl, pH 1.5.
# [5] = target: T3, FcγRIIIa extracellular domain with …; experiment: SPR (Biacore); He/Con_3a divided by He/Con_2b (FcγRIIIa against FcγRIIb)
# Procedure: as §1, §2
Binder,He_2aR/2b [1],He/Con_2b [2],He/Con_2aR [3],He/Con_3a (relative binding activity) [4],He_3a/2b (IIIa/IIb) [5]
"GpH7-A5/GpH7-B3 variant A327_12R/GpL16-k0 (antibody, human IgG1, kappa, Heterodimerized anti-glypican-3 IgG1; mutation in the GpH7-B3 chain only; also called He Ab) heavy 1: not shown heavy 2: not shown light: DIVMTQSPLSLPVTPGEPASISCQASESLVHSNRNTYLHWYLQKPGQSPQLLIYKVSNRFSGVPDRFSGSGSGTDFTLKISRVEAEDVGVYYCSQNTHVPPTFGQGTKVEIERTVAAPSVFIFPPSDEQLKSGTASVVCLLNNFYPREAKVQWKVDNALQSGNSQESVTEQDSKDSTYSLSSTLTLSKADYEKHKVYACEVTHQGLSSPVTKSFNRGEC",0.67 ratio,9 control = 100,6 control = 100,–,–
"GpH7-A5/GpH7-B3 variant A327_09D/GpL16-k0 (antibody, human IgG1, kappa, Heterodimerized anti-glypican-3 IgG1; mutation in the GpH7-B3 chain only; also called He Ab) heavy 1: not shown heavy 2: not shown light: DIVMTQSPLSLPVTPGEPASISCQASESLVHSNRNTYLHWYLQKPGQSPQLLIYKVSNRFSGVPDRFSGSGSGTDFTLKISRVEAEDVGVYYCSQNTHVPPTFGQGTKVEIERTVAAPSVFIFPPSDEQLKSGTASVVCLLNNFYPREAKVQWKVDNALQSGNSQESVTEQDSKDSTYSLSSTLTLSKADYEKHKVYACEVTHQGLSSPVTKSFNRGEC",0.72 ratio,172 control = 100,124 control = 100,–,–
"GpH7-A5/GpH7-B3 variant A327_07I/GpL16-k0 (antibody, human IgG1, kappa, Heterodimerized anti-glypican-3 IgG1; mutation in the GpH7-B3 chain only; also called He Ab) heavy 1: not shown heavy 2: not shown light: DIVMTQSPLSLPVTPGEPASISCQASESLVHSNRNTYLHWYLQKPGQSPQLLIYKVSNRFSGVPDRFSGSGSGTDFTLKISRVEAEDVGVYYCSQNTHVPPTFGQGTKVEIERTVAAPSVFIFPPSDEQLKSGTASVVCLLNNFYPREAKVQWKVDNALQSGNSQESVTEQDSKDSTYSLSSTLTLSKADYEKHKVYACEVTHQGLSSPVTKSFNRGEC",0.77 ratio,127 control = 100,98 control = 100,–,–
"GpH7-A5/GpH7-B3 variant D270_05P/GpL16-k0 (antibody, human IgG1, kappa, Heterodimerized anti-glypican-3 IgG1; mutation in the GpH7-B3 chain only; also called He Ab) heavy 1: not shown heavy 2: not shown light: DIVMTQSPLSLPVTPGEPASISCQASESLVHSNRNTYLHWYLQKPGQSPQLLIYKVSNRFSGVPDRFSGSGSGTDFTLKISRVEAEDVGVYYCSQNTHVPPTFGQGTKVEIERTVAAPSVFIFPPSDEQLKSGTASVVCLLNNFYPREAKVQWKVDNALQSGNSQESVTEQDSKDSTYSLSSTLTLSKADYEKHKVYACEVTHQGLSSPVTKSFNRGEC",0.54 ratio,13.9 control = 100,7.5 control = 100,–,–

# Now from value to binder:
He_2aR/2b [1],He/Con_2b [2],He/Con_2aR [3],He/Con_3a (relative binding activity) [4],He_3a/2b (IIIa/IIb) [5],Binder
0.78 ratio,140 control = 100,110 control = 100,–,–,"GpH7-A5/GpH7-B3 variant A327_10E/GpL16-k0 (antibody, human IgG1, kappa, Heterodimerized anti-glypican-3 IgG1; mutation in the GpH7-B3 chain only; also called He Ab) heavy 1: not shown heavy 2: not shown light: DIVMTQSPLSLPVTPGEPASISCQASESLVHSNRNTYLHWYLQKPGQSPQLLIYKVSNRFSGVPDRFSGSGSGTDFTLKISRVEAEDVGVYYCSQNTHVPPTFGQGTKVEIERTVAAPSVFIFPPSDEQLKSGTASVVCLLNNFYPREAKVQWKVDNALQSGNSQESVTEQDSKDSTYSLSSTLTLSKADYEKHKVYACEVTHQGLSSPVTKSFNRGEC"
0.64 ratio,167 control = 100,106 control = 100,–,–,"GpH7-A5/GpH7-B3 variant G236_09D/GpL16-k0 (antibody, human IgG1, kappa, Heterodimerized anti-glypican-3 IgG1; mutation in the GpH7-B3 chain only; also called He Ab) heavy 1: not shown heavy 2: not shown light: DIVMTQSPLSLPVTPGEPASISCQASESLVHSNRNTYLHWYLQKPGQSPQLLIYKVSNRFSGVPDRFSGSGSGTDFTLKISRVEAEDVGVYYCSQNTHVPPTFGQGTKVEIERTVAAPSVFIFPPSDEQLKSGTASVVCLLNNFYPREAKVQWKVDNALQSGNSQESVTEQDSKDSTYSLSSTLTLSKADYEKHKVYACEVTHQGLSSPVTKSFNRGEC"
–,–,–,32.7 % of control,3.53 ratio,"GpH7-A5/GpH7-B3 variant L328_12R/GpL16-k0 (antibody, human IgG1, kappa, Heterodimerized anti-glypican-3 IgG1; mutation in the GpH7-B3 chain only; also called He Ab) heavy 1: not shown heavy 2: not shown light: DIVMTQSPLSLPVTPGEPASISCQASESLVHSNRNTYLHWYLQKPGQSPQLLIYKVSNRFSGVPDRFSGSGSGTDFTLKISRVEAEDVGVYYCSQNTHVPPTFGQGTKVEIERTVAAPSVFIFPPSDEQLKSGTASVVCLLNNFYPREAKVQWKVDNALQSGNSQESVTEQDSKDSTYSLSSTLTLSKADYEKHKVYACEVTHQGLSSPVTKSFNRGEC"

# Source: US20150344570A1 (published 2015)
